According to publication PMC9456320:

molecular target: C-terminally mKGC-tagged ORF30 (ORF30-mKGC); experiment: BiFC assay, flow cytometry; conditions: 293T cells; co-transfected with mCherry transfection control; three independent samples; ASC10mut protein expression was not confirmed by Western blotting; parent: 99.8

Question: “N-terminally mKGN-tagged ORF18 (mKGN-ORF18) WT P156A; R158A; L159A” was tested. Which response did it give?
Answer: 14.4%

same assay, conditions: 293T cells; co-transfected with mCherry transfection control; three independent samples; parent: 99.8

Question: With “N-terminally mKGN-tagged ORF18 (mKGN-ORF18) WT C166A; L167A; W170A; G171A” as the substance, how does the response read?
Answer: 14.2%

Question: For “N-terminally mKGN-tagged ORF18 (mKGN-ORF18) WT E36A; L37A; R38A”, which response is on record?
Answer: 9.76%

Question: How did the response turn out when “N-terminally mKGN-tagged ORF18 (mKGN-ORF18) WT E176A; V179A; R180A” was run?
Answer: 75.3%

Question: With “N-terminally mKGN-tagged ORF18 (mKGN-ORF18) WT F187A; L191A” as the substance, how does the response read?
Answer: 32.7%

Question: “N-terminally mKGN-tagged ORF18 (mKGN-ORF18) WT G3A” was tested. Which response did it give?
Answer: 99.8%

Question: “N-terminally mKGN-tagged ORF18 (mKGN-ORF18) WT G195A; L197A” was tested. Which response did it give?
Answer: 87.5%

Question: “N-terminally mKGN-tagged ORF18 (mKGN-ORF18) WT H41A; L44A” was tested. Which response did it give?
Answer: 16.2%

Question: For “N-terminally mKGN-tagged ORF18 (mKGN-ORF18) WT L24A; L29A”, which response is on record?
Answer: 16.7%

Question: “N-terminally mKGN-tagged ORF18 (mKGN-ORF18) WT L142A; D144A; G145A; N146A” was tested. Which response did it give?
Answer: 81.3%

Question: “N-terminally mKGN-tagged ORF18 (mKGN-ORF18) WT L151A; G152A; S153A” was tested. Which response did it give?
Answer: 72.6%

Question: Which response does the source give for “N-terminally mKGN-tagged ORF18 (mKGN-ORF18) WT N53A; Y55A; L56A” here?
Answer: 39.9%

Question: Which response does the source give for “N-terminally mKGN-tagged ORF18 (mKGN-ORF18) WT P14A; G15A; L19A” here?
Answer: 14.1%

same assay, conditions: 293T cells; co-transfected with mCherry transfection control; three independent samples; parent: 99.9

Question: “N-terminally mKGN-tagged ORF18 (mKGN-ORF18) WT C166A” was tested. Which response did it give?
Answer: 99.6%

Question: How did the response turn out when “N-terminally mKGN-tagged ORF18 (mKGN-ORF18) WT E36A” was run?
Answer: 55.9%

Question: Which response does the source give for “N-terminally mKGN-tagged ORF18 (mKGN-ORF18) WT G15A” here?
Answer: 99.6%

Question: “N-terminally mKGN-tagged ORF18 (mKGN-ORF18) WT G171A” was tested. Which response did it give?
Answer: 98.6%

Question: Which response does the source give for “N-terminally mKGN-tagged ORF18 (mKGN-ORF18) WT H41A” here?
Answer: 47.4%

Question: How did the response turn out when “N-terminally mKGN-tagged ORF18 (mKGN-ORF18) WT L19A” was run?
Answer: 99.1%

Question: How did the response turn out when “N-terminally mKGN-tagged ORF18 (mKGN-ORF18) WT L24A” was run?
Answer: 93.4%

Question: Which response does the source give for “N-terminally mKGN-tagged ORF18 (mKGN-ORF18) WT L29A” here?
Answer: 58.8%

Question: “N-terminally mKGN-tagged ORF18 (mKGN-ORF18) WT L37A” was tested. Which response did it give?
Answer: 98.7%

Question: How did the response turn out when “N-terminally mKGN-tagged ORF18 (mKGN-ORF18) WT L44A” was run?
Answer: 94.7%

Question: “N-terminally mKGN-tagged ORF18 (mKGN-ORF18) WT L159A” was tested. Which response did it give?
Answer: 99.9%

Question: Which response does the source give for “N-terminally mKGN-tagged ORF18 (mKGN-ORF18) WT L167A” here?
Answer: 96.6%

Question: “N-terminally mKGN-tagged ORF18 (mKGN-ORF18) WT P14A” was tested. Which response did it give?
Answer: 99.9%

Question: For “N-terminally mKGN-tagged ORF18 (mKGN-ORF18) WT P156A”, which response is on record?
Answer: 99.8%

Question: Which response does the source give for “N-terminally mKGN-tagged ORF18 (mKGN-ORF18) WT R158A” here?
Answer: 87.3%

Question: “N-terminally mKGN-tagged ORF18 (mKGN-ORF18) WT W170A” was tested. Which response did it give?
Answer: 25.6%

molecular target: C-terminally mKGC-tagged ORF30 (ORF30-mKGC) (Kaposi's sarcoma-associated herpesvirus (KSHV; BAC16, strain JSC-1)); experiment: split reporter (BiFC, NanoBiT); split mKusabira-Green (mKGN/mKGC) BiFC in 293T cells, co-transfected by the calcium phosphate method, all combinations of tag type and location; cells fixed two days after transfection, gated by FSC/SSC, ratio of mKG-positive cells by flow cytometry; conditions: not given

Question: How did the mKG-positive cells (%) turn out when “N-terminally mKGN-tagged ORF18 (mKGN-ORF18) WT (natural protein)” was run?
Answer: 70%

molecular target: p50-mKGC (pCONT-2) (UniProt P19838); experiment: split reporter (BiFC, NanoBiT); split mKusabira-Green BiFC in 293T cells, lipofection of mKGN-ORF18 alanine-scanning mutants with ORF30-mKGC and mCherry as transfection control; mCherry-positive cells gated, % mKG-positive cells by flow cytometry; block mutants under 20% and single mutants under 60% counted as binding-negative; conditions: not given
UniProt P19838, sequence (P19838 1-433): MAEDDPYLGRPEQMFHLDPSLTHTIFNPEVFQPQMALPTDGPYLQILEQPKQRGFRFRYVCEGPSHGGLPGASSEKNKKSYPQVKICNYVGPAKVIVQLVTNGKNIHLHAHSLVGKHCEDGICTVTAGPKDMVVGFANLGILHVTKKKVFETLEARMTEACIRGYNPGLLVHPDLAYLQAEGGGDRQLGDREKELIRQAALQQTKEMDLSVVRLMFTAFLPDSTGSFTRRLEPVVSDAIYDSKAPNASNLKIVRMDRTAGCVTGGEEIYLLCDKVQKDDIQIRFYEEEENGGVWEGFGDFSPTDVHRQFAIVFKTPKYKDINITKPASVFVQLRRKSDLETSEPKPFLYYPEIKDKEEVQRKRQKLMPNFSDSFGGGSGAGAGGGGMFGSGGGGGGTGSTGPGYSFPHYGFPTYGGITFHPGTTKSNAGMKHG

Question: With “p65-mKGN (pCONT-1) (from UniProt Q04206 1-551) (natural protein)” as the substance, how does the mKG-positive cells (%) read?
Answer: > 90%
